In patent US7576177B2, “Hsp peptides and analogs for modulation of immune responses via antigen presenting cells” (Andromeda Biotech Ltd., priority 2002, dated 2009):

How the values were obtained:
[1] = test system: peripheral blood monocytes; assay: Peripheral blood monocytes: IP-10 after direct stimulation or preincubation then LPS; assay type: cell-based, human; conditions: peripheral blood monocytes, no preincubation, FIG. 4
Protocol: Peripheral blood mononuclear cells were prepared from leucocytes of blood lots obtained from the blood bank. The cells were plated at a concentration of 4×10^6 cell/ml/well in 24 well tissue culture dishes in medium containing 10% fetal calf serum. The cells were allowed to adhere for 2 hours at 37° C. After this time, non-adherent cells were washed away and the adherent cells incubated in fresh medium containing 10% human AB serum for 6-8 days, changing the medium after 4 days. These culture conditions were reported to give rise to monocytes.
For stimulation the medium was replaced with medium without serum. For preincubation, the cells were exposed overnight to the tested compounds at various concentrations and then LPS was added. The supernatant was collected after a further overnight incubation and tested for various cytokines by ELISA assays.

[2] = test system: peripheral blood mononuclear cells cultured with GM-CSF and IL4 (dendritic cells); assay: Peripheral blood derived dendritic cells: secreted cytokines (IP-10, IL-8) and cell surface antigens (CD83, CD86); assay type: cell-based, human; conditions: overnight
Protocol: The effect of the compositions of the present invention on peripheral blood derived dendritic cells, was tested according to a protocol described by Re, F. and Strominger, J. L. 2001. Toll-like receptor 2 (Tlr2) and Tlr4 differentially activate human dendritic cells. (J Biol Chem 276: 37692-9). According to this method immature dendritic cells derived from human peripheral blood are used. The outcome after incubating the cells with tested molecules is different if the stimulation is through the Toll 4 receptor or the Toll 2 receptor. According to the authors, Toll 2 signaling by stimulation with zymosan is associated with a Th2 kind of response (exemplified by IL-8) and Toll 4 signaling, such as obtained by LPS stimulation (exemplified by IP-10), with a Th1 type of response. The compositions of the present invention were tested using a similar assay system in order to check which stimulation type they induce. […] The increase in CD86 expression after exposure of APCs to Hsps or Hsp derived peptides is important since CD86 (B7.2) is an essential component of the immunological synapse formed between T cells and APC. This synapse consists of CD80 and CD86 on the side of the APC and CD28 and CD40 on the side of the T cell. T cell recognition of peptide on APC without the concurrent expression of CD86 gives rise to anergy instead of a T cell response. Therefore in order to produce a response all components must be present.
The assay was based on the protocol described by Re, F. and Strominger, J. L. 2001. Toll-like receptor 2 (Tlr2) and Tlr4 differentially activate human dendritic cells. (J. Biol Chem 276: 37692-9).
Peripheral blood mononuclear cells were prepared from leucocytes from blood lots obtained from the blood bank. The cells were plated at 10^8 cells/10 ml/Petri dish in RPMI medium including 10% FCS and allowed to adhere at 37° C. for 2 hours. At the end of this time, the non-adherent cells were washed off the plates with PBS and the adherent cells resuspended in fresh medium as before. […]

[3] = test system: BALB/c DO.11.10 bone marrow cells cultured for dendritic cells, cocultured with DO.11.10 T cells; assay: Education of mouse dendritic cells and stimulation of T-cells, cytokine content of supernatant; assay type: cell-based; conditions: 0.3 nM Ova peptide
Protocol: Whelan et al. (J. Immunol 164, 6453-6460, 2000) addressed the problem in mice by an experiment in which mouse bone marrow cells were grown for 6 days in culture with GM-CSF to give immature dendritic cells. These dendritic cells were then incubated overnight with LPS (known to drive cells to DC1) or with a nematode antigen. The reason for the choice of nematode antigen was that injection of this antigen in vivo gives rise to a Th2 response in animals. After this so-called “education” of the dendritic cells, they were washed and subsequently incubated with naive T cells in the presence of antigenic stimulus. The experiment was possible because of the use of transgenic mice in which all the T cells respond to the same peptide (OVA323-339) which absolves the system from any question of bias of the T cell response at the level of the T cells. Any bias should be a consequence of the “education” of the dendritic cells. After three days of incubation the cytokine responses produced by the T cells, were measured by ELISA. […] In contrast, nematode antigen incubation gave rise to more IL-4 (Th2) than did controls while the LPS incubation inhibited the IL4 response. Therefore, the nematode antigen was said to drive cells to DC2. A similar method was used for testing the compounds of the present invention: • 1. Bone marrow cells were extracted from the leg bones of DO.11.10 mice transgenic for the TcR. All cells from these mice respond to the OVA peptide ([…]). • 2. Bone marrow cells were plated at 10^6 cells/ml in 100 mm diameter tissue culture petri dishes in Iscove's medium supplemented with 10% FCS, […], 1 mM sodium pyruvate, penicillin/streptomycin (according to manufacturer's recommendations), non-essential amino acids, 50 μM β-mercaptoethanol and 10 ng/ml mGM-CSF. • 3. After 4 days, the medium was carefully removed and replaced with fresh medium • 4. After 6 days, the non-adherent cells were harvested and used as immature dendritic cells • 5. The immature dendritic cells are plated at 1×10^6 cells/ml, 1 ml/well in 24 well plates in the above medium with various reagents added at various concentrations and incubated overnight. This is the stage in which the dendritic cells are “educated” • 6. The next day the cells were harvested and washed 3 times then resuspended at 5×10^4 cells/ml in 1 ml of the above medium but without the addition of GM-CSF to be cocultured with T cells • 7. […] 5×10^5 T cells were cultured with the dendritic cells from step 6 in the presence of various concentrations of the OVA peptide (0, 0.3 nM, 3 nM and 30 nM). • 9. After 3 days PMA (50 ng/ml) and ionomycin (500 ng/ml) were added to further stimulate the cells. • 10. The next day the cell supernatants were collected and assayed for cytokine content (Interferon γ, IL4, IL-10 and IL-12).
The compound was tested for stimulation of DO.11.10 bone marrow cells according to the assay described above (Production and education of mouse dendritic cells and stimulation of T-cells).
BALB/c DO.11.10 bone marrow cells were cultured for dendritic cells and then stimulated with LPS 1 μg/ml, LPS 10 μg/ml, hsp60 3 μg/ml, hsp60 10 μg/ml, p277 5 μg/ml and p277 50 μg/ml. The cells were then transferred to wells with T cells from fresh BALB/c DO.11.10 mice and stimulated with OVA peptide at different concentrations (0, 0.3 nM, 3 nM, 30 nM). Supernatant was collected after 48 hours for assay. 30 μl was taken for IFN, 40 μl for IL4 and IL-10 and 50 μl for IL-12 assays. The results are presented in the following tables, as amount of cytokine (pg/ml), and in FIG. 1.

[4] = dendritic cells educated with 3 μg/ml
[5] = dendritic cells educated with 10 μg/ml

B1: hsp60: heat shock protein 60, mitochondrial chaperone, used as stimulus (protein)
chain: MLRLPTVFRQMRPVSRVLAPHLTRAYAKDVKFGADARALMLQGVDLLADAVAVTMGPKGRTVIIEQGWGSPKVTKDGVTVAKSIDLKDKYKNIGAKLVQDVANNTNEEAGDGTTTATVLARSIAKEGFEKISKGANPVEIRRGVMLAVDAVIAELKKQSKPVTTPEEIAQVATISANGDKEIGNIISDAMKKVGRKGVITVKDGKTLNDELEIIEGMKFDRGYISPYFINTSKGQKCEFQDAYVLLSEKKISSIQSIVPALEIANAHRKPLVIIAEDVDGEALSTLVLNRLKVGLQVVAVKAPGFGDNRKNQLKDMAIATGGAVFGEEGLTLNLEDVQPHDLGKVGEVIVTKDDAMLLKGKGDKAQIEKRIQEIIEQLDVTTSEYEKEKLNERLAKLSDGVAVLKVGGTSDVEVNEKKDRVTDALNATRAAVEEGIVLGGGCALLRCIPALDSLTPANEDQKIGIEIIKRTLKIPAMTIAKNAGVEGSLIVEKIMQSSSEVGYDAMAGDFVNMVEKGIIDPTKVVRTALLDAAGVASLLTTAEVVVTEIPKEEKDPGMGAMGGMGGGMGGGMF
modifications: Homo sapien
notes: heat shock protein 60, mitochondrial chaperone, used as stimulus
[1]
  IP-10 after direct stimulation: did not give rise to IP-10
[2]; stimulus 10 ng/ml
  IP-10: 6 pg/mL
[2]; stimulus 0.1 μg/ml
  IP-10: 1 pg/mL
[2]; stimulus 1 μg/ml
  IP-10: 31 pg/mL
[3]; [4]
  IFN secretion of T cells: 447.78 pg/mL
  IL-4 secretion of T cells: 35.96 pg/mL
  IL-10 secretion of T cells: 34.50 pg/mL
  IL-12 secretion of T cells: 95.00 pg/mL
[3]; [5]
  IFN secretion of T cells: 480.56 pg/mL
  IL-4 secretion of T cells: 24.29 pg/mL
  IL-10 secretion of T cells: 80.18 pg/mL
  IL-12 secretion of T cells: 126.25 pg/mL
